Here are results for one molecule from paper PMC5045189 (2016).

The target in this experiment is T1, Staphylococcus aureus manganese transporter protein MntC, wild type, recombinant (Staphylococcus aureus, UniProt W8TNQ9 1-309).
T1 chain: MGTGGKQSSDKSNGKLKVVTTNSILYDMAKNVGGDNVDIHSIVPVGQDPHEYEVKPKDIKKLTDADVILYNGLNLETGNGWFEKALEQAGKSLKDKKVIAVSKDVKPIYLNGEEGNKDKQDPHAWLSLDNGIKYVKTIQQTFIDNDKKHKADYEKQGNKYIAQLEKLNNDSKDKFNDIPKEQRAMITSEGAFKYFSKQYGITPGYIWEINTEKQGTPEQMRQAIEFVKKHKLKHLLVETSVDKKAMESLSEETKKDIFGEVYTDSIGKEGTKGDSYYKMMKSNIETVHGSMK
The experiment can be described thus: ELISA. A general note: In an ELISA, binding on a coated surface is turned into a signal by an enzyme label.

B1: monoclonal antibody mAB 305-78-7 (intact antibody, interference group 2) (antibody, V domains shown)
VH: QVQLQQSGAELARPGASVKMSCKASGYTFTRYTMHWVQQRPGQGLEWIGYINPSSDYTKYNQKFKDKATMTADKSSSTAYMQLSSLTSEDSAVYYCARKEDVGYWYFDFWGTGTTVTVSS
VL: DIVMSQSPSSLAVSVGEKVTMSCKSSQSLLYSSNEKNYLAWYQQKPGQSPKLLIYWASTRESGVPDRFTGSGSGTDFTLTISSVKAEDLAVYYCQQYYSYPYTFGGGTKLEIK
In the case of B1, the Kd turned out to be 1.3 nM.

The Kd is the free concentration of one partner at which half of the binding sites on the other are occupied at equilibrium, for simple one-to-one binding.
